Results published in patent publication US20070162998A1.

Target: papain (cysteine protease) (UniProt P00784)
Assay: cell-based or functional assay

Sequence of UniProt P00784 (P00784 134-345 limits assumed): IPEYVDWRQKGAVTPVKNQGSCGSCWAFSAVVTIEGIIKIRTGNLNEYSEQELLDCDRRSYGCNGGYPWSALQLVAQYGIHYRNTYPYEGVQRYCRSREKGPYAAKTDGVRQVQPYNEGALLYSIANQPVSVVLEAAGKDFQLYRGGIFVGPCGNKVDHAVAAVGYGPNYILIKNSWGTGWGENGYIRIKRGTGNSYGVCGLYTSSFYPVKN

residual protease activity of papain on 0.1% gelatin/SDS-PAGE: 100
Substance: recombinant CeCPI protein (taro cysteine protease inhibitor, tarocystatin)
